Columns and labels:
[1] = target: T1, hiR2-FL-K536-T7 (deletion of K536) (human, UniProt Q6PJF5 1-856); experiment: FACS on MEF-DKO cells
T1 construct: single amino acid deletion
T1 sequence: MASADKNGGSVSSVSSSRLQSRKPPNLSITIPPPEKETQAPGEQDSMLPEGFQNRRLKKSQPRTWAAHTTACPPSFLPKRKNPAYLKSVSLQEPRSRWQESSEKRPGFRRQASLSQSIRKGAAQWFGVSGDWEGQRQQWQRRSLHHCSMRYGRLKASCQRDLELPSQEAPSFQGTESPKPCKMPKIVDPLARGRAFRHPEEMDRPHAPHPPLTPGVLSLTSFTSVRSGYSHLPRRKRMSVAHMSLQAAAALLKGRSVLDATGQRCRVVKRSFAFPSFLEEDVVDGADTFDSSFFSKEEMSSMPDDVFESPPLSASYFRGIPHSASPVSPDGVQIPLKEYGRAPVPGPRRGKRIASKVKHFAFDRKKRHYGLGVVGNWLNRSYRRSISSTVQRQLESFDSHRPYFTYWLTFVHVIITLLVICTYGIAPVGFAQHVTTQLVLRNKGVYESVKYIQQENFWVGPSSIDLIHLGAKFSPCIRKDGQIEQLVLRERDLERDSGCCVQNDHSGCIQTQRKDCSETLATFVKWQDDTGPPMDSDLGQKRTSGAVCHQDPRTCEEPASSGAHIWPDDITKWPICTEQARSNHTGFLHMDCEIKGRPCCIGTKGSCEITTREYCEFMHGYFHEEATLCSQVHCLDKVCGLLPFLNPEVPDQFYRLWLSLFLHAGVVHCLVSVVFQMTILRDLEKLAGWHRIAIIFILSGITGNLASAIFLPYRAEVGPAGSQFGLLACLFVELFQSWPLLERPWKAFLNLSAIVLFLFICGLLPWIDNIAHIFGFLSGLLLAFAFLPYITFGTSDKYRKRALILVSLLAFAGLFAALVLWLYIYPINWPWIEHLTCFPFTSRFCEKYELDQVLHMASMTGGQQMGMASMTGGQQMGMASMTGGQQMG

mouse iR1 wild type = target: T2, mouse iR1 wild type (mouse); experiment: FACS, MEF-DKO cells, 3 µg/ml
T2 construct: wild type, expressed on cells; also called mouse iRhom1 wild type

hiR1-FL-WT-T7 = target: T3, hiR1-FL-WT-T7 (human, UniProt Q96CC6 1-855); experiment: FACS, MEF-DKO cells, 3 µg/ml
T3 construct: on MEF-DKO cells
T3 sequence: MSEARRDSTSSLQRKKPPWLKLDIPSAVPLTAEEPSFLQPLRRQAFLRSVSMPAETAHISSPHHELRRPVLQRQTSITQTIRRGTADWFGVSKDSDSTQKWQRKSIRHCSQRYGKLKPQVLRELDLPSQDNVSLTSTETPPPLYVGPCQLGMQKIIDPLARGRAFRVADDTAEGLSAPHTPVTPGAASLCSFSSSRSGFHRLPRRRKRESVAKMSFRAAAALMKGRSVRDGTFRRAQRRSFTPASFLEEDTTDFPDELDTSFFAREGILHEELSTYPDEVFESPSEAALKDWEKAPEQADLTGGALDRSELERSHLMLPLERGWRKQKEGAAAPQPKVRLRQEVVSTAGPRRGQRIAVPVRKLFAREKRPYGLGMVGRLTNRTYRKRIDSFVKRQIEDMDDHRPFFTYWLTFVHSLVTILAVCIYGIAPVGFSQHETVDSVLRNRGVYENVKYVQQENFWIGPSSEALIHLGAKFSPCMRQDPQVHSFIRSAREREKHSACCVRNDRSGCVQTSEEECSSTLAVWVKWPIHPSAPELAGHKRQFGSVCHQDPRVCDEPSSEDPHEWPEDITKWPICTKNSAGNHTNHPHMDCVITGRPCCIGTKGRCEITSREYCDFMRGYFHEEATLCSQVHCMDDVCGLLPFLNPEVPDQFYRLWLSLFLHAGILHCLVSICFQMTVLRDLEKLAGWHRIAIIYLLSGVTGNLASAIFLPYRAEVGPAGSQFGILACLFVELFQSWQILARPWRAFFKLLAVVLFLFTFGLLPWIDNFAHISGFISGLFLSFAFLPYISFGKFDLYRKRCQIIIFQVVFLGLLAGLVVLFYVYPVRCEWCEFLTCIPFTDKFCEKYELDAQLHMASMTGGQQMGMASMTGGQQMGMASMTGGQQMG

Row | Binder | binding result [1] | loss of binding vs wild type (mouse iR1 wild type) [%] | loss of binding vs wild type (hiR1-FL-WT-T7) [%]
1 | antibody 16 (antibody, V domains shown, mouse IgG, kappa light chain; also called clone #16; purified antibody 16) VH: QVTLKESGPGILQPSQTLSLTCSFSGFSLSTFALGVGWIRQPSGRGLEWLAHIWWDDDKYYNPALKSRLTISKDTSKNHVFLKIANVDTADTATYYCARITTYYYGMDYWGQGTSVTVSS VL: DIVLSQSPATLSVTPGDSVSLFCRASQSIGNHLHWYQQESHASPRLLIKYASQSISGIPSRFSGSGSGTDFTLSINSVETEDFGMYFCQQSYNWPLTFGAGTKLELK | no binding (tested: 3 µg/ml) | ≥ 95 | ≥ 95
2 | antibody 5 (antibody, V domains shown, mouse IgG, kappa light chain; also called clone #5; purified antibody 5) VH: QVTLKESGPGILQPSQTLSLTCSFSGFSLSTFGMGVGWIRQPSGKGLEWLAHIWWDDEKYYNSALKSRLTISKATSKNQAFLKIANVDTADTATYYCARISNYGSNYWYFNVWGTGTTVTVSS VL: QVVLTQSPALMSASPGEKVTMTCSAGSSVSCMYWYQQKPGSSPRVLIYDTSNLASGVPARFTGSGSGTSYSLTISRMEAEDAASYYCQQWNSYPLTFGAGTKLELK | no binding (tested: 3 µg/ml) | ≥ 95 | ≥ 95
3 | antibody 22 (antibody, V domains shown, mouse IgG, kappa light chain; also called clone #22; purified antibody 22) VH: QVTLKESGPGILQPSQTLSLTCSFSGFSLSTFGMGVGWIRQPSGKGLEWLAHIWWDDEKYYNSALKSRLTISKATSKNQVFLKIANVDTADTATYYCARISNYGSNYWYFNVWGTGTTVTVSS VL: QVVLTQSPALMSASPGEKVTMTCSAGSSVSYMYWYQQKPGSSPRVLIYDTSNLASGVPARFTGSGSGTSYSLTISRMEAEDAATYYCQQWNSYPLTFGAGTKLELK | no binding (tested: 3 µg/ml) | ≥ 95 | ≥ 95
4 | antibody 42 (antibody, V domains shown, mouse IgG, kappa light chain; also called clone #42; purified antibody 42) VH: QVTLKESGPGILQPSQTLSLTCSLSGFSLSTFGRGVGWIRQPSGKGLEWLAHIWWDDEKYYNPALKSRLTISKDTSKNQVFLRIANVDTADTATYYCARIQNYGSNYWYFDVWGTGTTVTVSS VL: LIVLTQSPAIMSASPGEKVTMTCGATSRISYMFWYQQKPGSSPRVLIYDTSNLASGVPVRFSGSGSGTSYSLTISRVEAEDVATYYCQQWNSYPLTFGAGTKLELK | no binding (tested: 3 µg/ml) | ≥ 95 | ≥ 95
5 | antibody 3 (antibody, V domains shown, mouse IgG, kappa light chain; also called clone #3; purified antibody 3) VH: QVTLKESGPGILQPSQTLSLTCSFSGFSLTTFAMGIGWVRQPSGKGLEWLAHIWWDGEKYNNPVLKSRLTISKDTSKNQVFLRIANVDTPDTATYYCARISSIYYIIDNWGQGTSVTVSS VL: DIVLTQSPATLSVTPGHSVSLSCRASQSISNNLHWYQKKSHESPRLLIKYVSQSISGIPSRFSGSGSGTDFTLSINSVETEDFGMYFCQQSYNWPLTFGAGTKLELK | no binding (tested: 3 µg/ml) | ≥ 95 | ≥ 95
6 | antibody 34 (antibody, V domains shown, mouse IgG, kappa light chain; also called clone #34; purified antibody 34) VH: QVTLKESGPGILQPSQTLSLTCSFSGFSLSTFSLGVGWIRQSSGKGLEWLAHIWWDDEKYYNPALKSRLTISKDTSKNQVFLKIANVDAADTATYYCARAYYSKSYYALDYWGQGTSVTVSS VL: DIQMTQSPSSLSASLGERVSLTCRASQEISGYLSWLQQKPDGTIKRLIYAASTLDSGVPKRFSGSRSGSDYSLAISSLESEDFADYYCLQYANFPFTFGSGTKLEIK | no binding (tested: 3 µg/ml) | ≥ 95 | ≥ 95
7 | antibody 43 (antibody, V domains shown, mouse IgG, kappa light chain; also called clone #43; purified antibody 43) VH: QVALKESGPGILQPSQTLSLTCSFSGFSLSTFGMGVGWIRQSSGKGLEWLANIWWDDDKYYNPALKSRLTISKDASKNQAFLKIANVDTADTATYYCARIGNYGSNYWYFDVWGTGTTVTVSS VL: QIVLTQSPAIMSASPGERVTMTCSANSRISYMYWYQQKPGSSPRLLIYDTSNLASGVPVRFSGSGSGTSYSLTISRMEAEDAATYNCQQWSSYPLTFGAGTKLELK | no binding (tested: 3 µg/ml) | ≥ 95 | ≥ 95
8 | antibody 44 (antibody, V domains shown, mouse IgG, kappa light chain; also called clone #44; purified antibody 44) VH: QVTLKESGPGILQPSQTLSLTCSFSGFSLSTFGMGVGWIRQPSEKGLEWLAHIWWDDDKYYNPALKSRLTISKDTSKNQIFLKITNVDTAETATYYCSRIGNYGSNYWYFDVWGTGTTVTVSS VL: QIVLTQSPAVMSASPGEKVTMTCTASSSVYYMYWYQQTPGSSPRLLIYDTSNLASGVPVRFSGSGSGTSYSLTISRMEAEDAATYYCQQWNTYPLTFGAGTKLELK | no binding (tested: 3 µg/ml) | ≥ 95 | ≥ 95
9 | antibody 48 (antibody, V domains shown, mouse IgG, kappa light chain; also called clone #48; purified antibody 48) VH: QVQLQQSGTELVRPGTSVKVSCKASGYAFTNYLIEWVKQRPGQGLEWIGVINPGSGFTKYNEKFKGKATLTADKSSSTVYMHLSSLTSEDSAVYFCARGLYRAMDYWGQGTSVTVSS VL: DIQMTQSPASQSASLGESVTITCLASQTIATWLAWYQQKPGKSPQLLIYGATTLADGVPSRFSGGGSGTKFSFKISSLQAEDFVSYYCQQLYSTPYTFGGGTKLEIK | – | ≥ 60 | ≥ 60
10 | antibody 50 (antibody, V domains shown, mouse IgG, kappa light chain; also called clone #50; purified antibody 50) VH: QVQLQQSGAELVRPGASVKVSCKASGYAFSNYLIEWVKQRPGQGLEWIGVINPGSGFTKYNEKFKGKATLTADKSSSTAYMQLSSLTSEDSAVYFCARGLYRAMDYWGQGTSVTVSS VL: DIQMTQSPASQSASLGESVTITCLASQTIGTWLAWYQQKPGKSPQLLIYAAASLADGVPSRFSGGGSGTKFSFKISSLQAEDFVNYYCQQIYSTPYTFGGGTKLEIK | – | ≥ 95 | ≥ 95
